From patent publication US20160009798A1 come the findings set out here.

In general, Kd refers to the equilibrium constant for the complex coming apart. As a reminder, the koff is the first-order rate constant of dissociation. The kon is a measure of how fast the partners come together.

In assay [1] the target is human oncostatin M (OSM), in-house recombinant, mammalian-cell derived (human) (UniProt P13725). Briefly: SPR competition, human OSM captured on immobilized M2 (competitor), sample injected at 300 nM.
Assay [2] has as its target Cynomolgus monkey (Macaca fascicularis) oncostatin M, in-house recombinant (Cynomolgus monkey (Macaca fascicularis)). Nature of the assay: SPR (Biacore 3000), mAb captured by anti-Fc, OSM as analyte.
In assay [3] the target is human oncostatin M (OSM), in-house recombinant, mammalian-cell derived (human) (UniProt P13725). The description is as above.
Assay [4] has the same target. Briefly: SPR competition, human OSM captured on immobilized M54 (competitor), sample injected at 300 nM.
The target is the same in assay [5]. Briefly: cell-based or functional assay.
For assay [6] the target is unchanged. Briefly: SPR competition, human OSM captured on immobilized M55 (competitor), sample injected at 300 nM, second chip.
Assay [7] has the same target. Nature of the assay: SPR competition, human OSM captured on immobilized M71 (competitor), sample injected at 300 nM.
Assay [8] shares this target. Nature of the assay: SPR competition, human OSM captured on immobilized M2 (competitor), sample injected at 300 nM, second chip.
For assay [9] the target is unchanged. Briefly: SPR competition, human OSM captured on immobilized M69 (competitor), sample injected at 300 nM.
The target is the same in assay [10]. Briefly: SPR competition, human OSM captured on immobilized M64 (competitor), sample injected at 300 nM, second chip.

Chain of Cynomolgus monkey (Macaca fascicularis) oncostatin M, in-house recombinant (Cynomolgus monkey (Macaca fascicularis)) (P13725 other isoform, or with tags, fused parts or gaps limits assumed): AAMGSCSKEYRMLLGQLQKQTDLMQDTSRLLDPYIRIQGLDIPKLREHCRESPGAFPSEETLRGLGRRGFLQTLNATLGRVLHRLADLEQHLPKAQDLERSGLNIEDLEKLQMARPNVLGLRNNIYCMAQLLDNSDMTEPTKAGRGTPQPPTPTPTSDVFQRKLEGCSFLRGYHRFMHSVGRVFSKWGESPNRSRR
Chain of human oncostatin M (OSM), in-house recombinant, mammalian-cell derived (human) (P13725 26-221 limits assumed): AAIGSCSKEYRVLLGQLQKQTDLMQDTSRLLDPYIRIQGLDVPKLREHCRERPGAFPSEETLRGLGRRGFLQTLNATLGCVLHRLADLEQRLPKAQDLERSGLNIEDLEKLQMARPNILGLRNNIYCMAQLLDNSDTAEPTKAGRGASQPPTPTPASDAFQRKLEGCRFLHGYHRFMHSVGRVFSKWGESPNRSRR

Turning to MAB295 (R&D Systems) (antibody), the Binding Level (RU) was -83 RU in assay [1]; 2900 RU in [4]; 2950 RU in assay [6]; 1990 RU in [7]; -80 RU in assay [8]; 2390 RU in assay [9]. Moreover, the Binding Level (RU) in assay [10] turned out to be 1950 RU. In addition, the KD ratio Cyno/Human in [2] is 10.7. Further, the Kd was found to be 19.8 nM in [2] and 1.85 nM in [3]. In addition, the off-rate (koff) in assay [2] was found to be 0.0141 s⁻¹; in [3] it was 0.00217 s⁻¹. For the same substance, the kon in assay [2] was 710000 M⁻¹ s⁻¹; in [3] it was 1.18e+06 M⁻¹ s⁻¹. Moreover, the EC50, pSTAT3 inhibition in A375 cells with 5 ng/ml hOSM in assay [5] was found to be 72.1 ng/ml.
